Reference: the domain aggregation screens of Martell et al. (2025)

assay: soluble fraction after stress (log2 fold change); higher = more stays soluble; pooled small domains, quantitative proteomics; conditions: stress: pH 4
Procedure, shortened: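 Custom libraries of small protein domains were pooled and exposed to pH 4. High-throughput quantitative proteomics then measured the log2 fold change in the amount of each domain still soluble, with higher values meaning more stayed soluble. This soluble-fraction fold change stands for aggregation propensity.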

Sequence	soluble fraction (log2)
HMFPDLSPEQQRIVDVLTKSNDLQLNQLSVKTGIPIGDITSILFQMEMMGVVKPMAGGNYHLL	-0.0768
HMGSSLLSPKEREVLQLLAGNLSNKQIALAMGVSDETIKWHLRNLFGKLNAGGRKHLIDRARMLGLLAAA	-0.153
HMADNILPAQTDAIKALATENGFSNESLEKYLIENYGTTIYGLSRNQGIQIINLFQSENPPKP	-0.207
HMAVPTHVEFPVVGLQRSGITSLEQAIATVPGVSKAVVNVSDNRIFVDYDPTRSKVSDLLEVVRGAGFTP	-0.222
HMTNKYSSLVIGTVKTIMEEDQYKNLMGPPLKKEIIKQVDKFTNALPIEFDQNDKDFYVKKILINL	-0.299
HMRLNIRTKNNYSYYTIIKDYTNLNGKRTTTIFEKLGNQQQVEERFGKVNTIENIKKYIEELNNE	0.22
HMGKELSTVVVPDLTGLSVLEARNVLTKVGLQLTPSGAGIAFKQIPTPGTRLTLGATVTVYFVATGY	-1.27
HMSGFFVYPNPAKSNIIHFPNKKSFYIYDTSGRLLIEGKGKDFIDVSTLDRGVYLLKTFENDIVKIII	-0.585
HMSKKTQKDEVVDLFLKTGNEPLHYKEISKKTGIIVHNVRRITGQNVVGKTDNPVFKRVSPGVYKLID	-0.0395
HMGAVDIATARQLISEIGLPIMLKAEGGGGGRGIFAIHNEAELEDAFFKASTMAQASFGNPRLFVEKF	-0.985
HMALALDDLFDRYEQLQDQSLGDKTEEGQELRAMIRAYIEQEGLSVRVTRSTTNRELLELIEQEMEG	-0.703
HMGGKWKAIIIYHLKNGPKRFGELRRALISSTETVLSNQLKQLEQDGLVSRQVFGTKPPLKTVYSLTDFG	-0.906
HMPNIQLARNLKYLRLAYGLTQDDLGAFLNISRQAYSNYENLKRSPDLDSLIRLASLYHLSLDDLVSR	-1.24
HMFSLDMDRLVRPGFMASGNVTFSDGVTGKWALDQMGRLALETAQKGYQPSPADVQAFQRELQQQLQRQG	-0.178
HMNNLVTRREVEILGWIKEGKTTSDIAGILSLSPFTVKNHVQNILKKLGARSRSHAVAQAINLGLLH	-0.446
HMFPELSEEAKVIVDALSKENDQQLNVLIANTGMAVGTMQAKLFELEMQGVVKPLAGSVYHLM	0.22
HMLADTNIHTIALKHRLANEVVEQVRPFLPETATIRAYDNMLILKSDRATLANVEQLIKKLDT	0.228
HMAPRKNIRLLRAAQDKAAAEGDHETVDAIRGQIAALIETLPVQYREEYLLQEKGRENGLKLAIENAAK	-0.214
HMGNIADARRDASYVFLIGEWAKSSNLTEKKLAGLIQSNHLDIKYGITVTDVIADIRKYKNDPTYNPF	0.312
HMTGMEAAEFGKRIMKLRKQKGMTQSKLAEQINVSNKAISRWETGEGFPEITLLKPLAKALGTTVDELFGE	-0.271
HMKRISDEDLLVMRRIDEVHTYHPTWGYRTITRILRRDDHLLINPKKVRRIMRDMGIYTIYPK	-0.41
HMVISAKRMQDRRDSILDAAREAFARAGFEGTSIADIARRAGVSDGLVYRYFASKRDLLNAVLTA	0.216
HMLINFPNKLKRLRLANNLTQQELANILETTKQAVSSYESGKSTPSLNSLIKLSEHFNISLDSLVFD	-0.446
HMEDTSTLSIKHKIKELINQESPQAILSDDKLVELLAAQGIKIARRTIAKYRETMNIPTSAERKRQKRPP	0.275
HMKHTVSVDRLQPGVFVSLGGLSWLDHPFLLNRFRLTDHDQIKVLRSLGVKEIEWDPTRSTAQPLPE	-0.724
HMLGSVRTIRQVLDDGRLIVADGGGNPSVIRRSGALAHETFANGQRVIVDPSGRLALELLPD	0.315

Sequence	soluble fraction (log2)
HMNHNPSIARKISREIKRGAPPESLLNLARTVNDSYYRSLSFVSIAYSIKGKKSKELFEEAISNLT	-0.0826
HMAKVSVNIILKDGVDQTTFVNDVTSNTEVDLKNQLISLPQMVVLSVEEDYINTLKSHSSISILELDE	-0.541
HMGLTYEQILTDVQRFVTQNHADTLSNEGNPEEARKLLKDYILQYVQNRSYHVDGQTTEELVDSLYED	-1.13
HMPPPTLVESAYNHLKADIISSYLKPDEKINLKDLSQRYQVSETPIKQALNRLISEGLIISVPRKGMWVH	0.065
HMELRIREILESKDIKVSSLAETVGITRANMSNIVNGKSTPSLETLEKIANALGVDITELFA	-0.573
HMVSKTEAMAVFIADKLQEGMVPANEILELYKGMQLSDRTIRNAKKQLGIVSIRKDGQWYWSL	-0.997
HMDTNAIIGLRIKNLRTEKKYTLKYLSENTGLSIGFLSQLERGMTSIAIDSLDKISKVLDVELSSFFT	-0.14
HMSYIGEEKAKSIAVSNVKGAGTNNVVKVEFDYDDGRAVYEVKVVYNAMEYEFEIDASNGKILSRDAESIY	-0.027
HMYQKERDKEISEIETFLKKITNANGTRAYSDESIADMSYVELLNLYEGITSKLTEEEIENI	-0.644
HMESAEQTGEELAARVNVLQTVSQALARELGREAAVEELADKMKMTVDEVKDIMKMAMDAMSM	-1.59
HMVVYFGGPVMLERGIVLHTPDISTKGTINVSDDFALTAHKEILDNINKDTSSLQFKLAIGH	-0.337
HMKSYTYNPNYLSDYNAYRLGIPLEALERLQLHRSTGRYVNSLSDFQSVTGISDSLKHSLSSSLRFPN	-0.564
HMNEWVSVEERLPTDERPVLAFIGYADTMNGFITTSYYFRFDPDPHWLGEGLIPVGLKTLFWMPLPAP	-0.0414
HMHANSDVEQLMQMGIQRLNFQRYSDALLIFNQIIENFPDYAEAWNKRATLHYLLGNLDKSIADIEQTLE	-1.54
HMQDREKNIAEGRDIIEHEFMRLGISLSRYDLDGLASKLNVKAGDDVLAGVGAGDIRVSQIISQLG	-0.747
HMGETAFRYALPLDQGEALKRSHVIRQSISPDDALATRVTVLEDVLDQTLRQPVQAGEVLLEDHFTR	-0.682
HMEYTTEELDSLLKLYFQTHESINRNEFEQLTSYTRTTASRRLKTLVQAGKLQNIGLYRFPVYKPTEGNF	-0.037
HMDTRKKLEQIFKLFDKTGTGMVNIDEFKSVLKLFMEEIDEKFGNYFIAYFDENGDGKIEFEEFADVVL	-0.462
HMEIFSIEPDSYLGSGEEIASYYREGVTVIVNMAKLSDAESLRMVDFMSGLKLALLGNIKRITKHVYLLTP	-0.966
HMAAVSTDEEFAALGIPAEWIPVLKSNGFQTVESLKKVAPGALFNQLGGLRKKNKLEIAMPSLDQVKAWLA	-0.278
HMSVPRPSAVEVTSLVTGVRDLLPHLGEGYVERVLVEFGFKVDETINALLEGNLPKHLQDLDPSLTKEI	-1.25
HMVAISNTSGLAGVAYWIQSNIPKGIDIRKDNPGIVTIKNWIDEEYRKGRTTTISEEEMFKLVREYMPEL	-1.12
HMGVDIAEHDGQPAVSIRKGAAESVAQWVKDQGGTFPQEVEMTVQNVARAGGTPLVVARGRDVLGVIYLKD	-0.281
HMAQLPPTATARATSDVSGLTASAALRTLLEQGFVPQIHGSGKVSRQHPPAGTLLEPGSTIQLFLEPS	≥ 0.43
HMHEAILNQIRNEELMLYIGELSDAQQDVILLKYFHQMTFKEIAESFSIPISTVKTRHTAALKKLSTLWK	0.0907
HMLEIDPPVDEISVSRKAFYEAAGYKVNPYTHIPPRYRKEFEEHSFVVMSWPRELPEETYRKFDRYLRDV	-0.253

Sequence	soluble fraction (log2)
HMELEQLKSQLTGFLKANREQIFTAQNLADGLRMTDSQGYKQVVNALNASVRDGDVIDIKNGYQYNKN	-0.0153
HMIEGETPEQTMERVSKDPEIVQILQDPVMQGILAQARENPAALQDHMKNPEVYKKINMLIAAGVIRT	-0.113
HMTEKPTREAHILDQLARDGGVLVAALSRELGVSEVTIRSDLRDLEAAGLLQRTHGGAQASSFQTVL	-0.48
HMDRWTPLVVAVLSRGSHRFGELRAAIGGITPKVLTDTLRSMERDGLITRDQAPGVPPRVDYALTPLGS	-0.126
HMDRDQNVEEGQRSLKSEMGRFGLLIANMDDLAERVNYGNAEDMYAAIGAGDLRLMQVVHAAEEMLG	-0.61
HMDPTHDMHFLVKDQVTGQPLPNMPYRLQLDNGQTLTGRTDALGMTEKISGHSPHIASIEVPY	0.025
HMAIDPLLDKGYEQYDKGEFTEAVKSFNRAIEIDPKNAEAHFLRAMTYQGLALSKLAVADLEKAIV	-0.127
HMKSKNRLTKSYLDSIPGVGRKRKSILLRYFGSIDQIKRASSEDIANVPGIGKITSDLVYNYFNQ	-0.23
HMIEGEQVRLLRLLERQEGGMLPLGDKSPASDILLLTGMSKKTFKMAVGALYKAQMITMTPTSIKLVK	0.386
HMESNWLTYAKRIQSIADTGMTFAVDDFDKERYQELADISSKMLADLSNIPIGRIENLLGPLGQ	-1.26
HMADDFISTLFSEGIIIDTEVKQFAERQGSPLQFVRHIASNLPEPRDIITMGEVRSVMREGA	-1.04
HMAVNQEFKNTINRIKYEYSLNQSQIADRLGVKKTYLSDMINGRVPYNETMNKKVNDVFPLPP	≥ 0.43
HMGQKMLTIELQEKVNKMPDNLASYDLKLSADGMSLIYKYSLKSERTGITALLQELKNAGLVMRDLKTEQ	-0.302
HMLSYFKIIKNGLVREGPASYYKIAENLEIGTIVQAFEKHDDWYLIKTHSGRIGWIVASDVTPQV	0.36
HMEISPGDVFKQLPGIGDDLSRRVVESLGIQSLEELESAAHDGRLEQVEGFGERRVQMVRAVLTGMLS	-1.04
HMETDGGDLTPRERDVLSLIGRGLRNAEAASALGLSEHTIAGHIKSVYSKLGISTRAEAALLASRLGL	-0.261
HMNLGDLYVIMEIAGQRDDVSARLMNREGQTFLVKTGTKLKSGDVVKEITPTYIKTDHDGEEAFLYF	-1.17
HMDPVILDINSVKALLGISNKADFMAELSRLVVTEGDKKMIIPLAKEVGIDNVAVYKRNEIENISNYK	-0.297
HMFELDELDLVILKNLANGLSKKQIRVKLKKMDLRPNSESAIDKRVSKLFDEFGAKNSTELVAKLIREGL	-0.234
HMSKNYYEILGVTPDVELSQLKAVYRRLVRKYHPDINPDGELIFKDITEAYEVLSDEKQRKQYDMINGF	-0.362
HMRSFADEGTVEEWIKQAIRENEAAVADYRKGKETAVKFLMGQVMRLSKGEANPADLEDKIKAKLD	0.025
HMEKRLDYTFGLNKEQLLYLTKSIKDGDFYNVSFIDGTEKKLNRVGSTKEVHKYVNFLMTNDGIVKK	0.0133
HMGTSFEDIDRAVKSVRKPETDEAEKLHAGKTFKDIAETELFQKLTESFAGISDRVNEVIDLYTARAAE	0.143
HMAKINFTSDAIDIGMVTRNDIEMLSFYQNVLGLTKDMEIPFPGLGVVNKLSFGSGFIKILVL	-0.272
